Reference: the Immune Epitope Database (IEDB)

Tests used:
HLA-A*32:01 = assay: IEDB peptide-MHC binding, purified MHC/competitive/radioactivity; filed as Kd, often an IC50 or EC50 that approximates it; ≥ and ≤ were set here for values at or beyond the usual limits of such assays
HLA-A*23:01 = assay: as above; conditions: source organism: Dengue virus 1 Brazil/97-11/1997
HLA-A*24:02 = assay: as above; conditions: source organism: Dengue virus 1 Brazil/97-11/1997
HLA-A*02:01 [1] = assay: IEDB peptide-MHC binding, purified MHC/competitive/fluorescence; ≥ and ≤ were set here for values at or beyond the usual limits of such assays
HLA-A*30:01 = assay: IEDB peptide-MHC binding, purified MHC/competitive/radioactivity; filed as Kd, often an IC50 or EC50 that approximates it; ≥ and ≤ were set here for values at or beyond the usual limits of such assays
HLA-A*03:01 [2] = assay: as above; conditions: source organism: Dengue virus 2 Peru/IQT2913/1996
HLA-B*58:01 = assay: IEDB peptide-MHC binding, purified MHC/direct/fluorescence; filed as Kd, often an IC50 or EC50 that approximates it; ≥ and ≤ were set here for values at or beyond the usual limits of such assays
HLA-A*11:01 = assay: as above
HLA-A*31:01 = assay: as above
HLA-B*15:01 = assay: as above
HLA-B*08:01 = assay: IEDB peptide-MHC binding, purified MHC/competitive/radioactivity; filed as Kd, often an IC50 or EC50 that approximates it; ≥ and ≤ were set here for values at or beyond the usual limits of such assays
HLA-A*02:01 [3] = assay: IEDB peptide-MHC binding, purified MHC/direct/fluorescence; filed as Kd, often an IC50 or EC50 that approximates it; ≥ and ≤ were set here for values at or beyond the usual limits of such assays
HLA-A*69:01 = assay: as above
HLA-B*40:01 [4] = assay: IEDB peptide-MHC binding, purified MHC/competitive/radioactivity; filed as Kd, often an IC50 or EC50 that approximates it; ≥ and ≤ were set here for values at or beyond the usual limits of such assays; conditions: source organism: Dengue virus 1 Brazil/97-11/1997
HLA-A*03:01 [5] = assay: IEDB peptide-MHC binding, purified MHC/direct/fluorescence; filed as Kd, often an IC50 or EC50 that approximates it; ≥ and ≤ were set here for values at or beyond the usual limits of such assays; conditions: source organism: Rickettsia prowazekii
HLA-B*40:01 [6] = assay: as above; conditions: source organism: Rickettsia prowazekii
[7] = source organism: Dengue virus 2 Jamaica/1409/1983
[8] = source organism: Zaire ebolavirus
[9] = source organism: Vaccinia virus WR
[10] = source organism: Dengue virus 4 Philippines/H241/1956
[11] = source organism: Rickettsia prowazekii

## GTGNIGETL
HLA-A*32:01; [7]
  Kd: 8120 nM

## GYFTQTAGPW
HLA-A*23:01
  Kd: 1220 nM
HLA-A*24:02
  Kd: ≥ 70300 nM

## HGLFPQLSA
HLA-A*02:01 [1]; [8]
  IC50: 47900 nM

## HLIIQYPSV
HLA-A*30:01; [9]
  Kd: 164 nM

## HLSNYIVSI
HLA-A*32:01; [9]
  Kd: 0.986 nM

## HMILVVVTT
HLA-A*32:01; [10]
  Kd: ≥ 77800 nM

## HMIVSRQEK
HLA-A*03:01 [2]
  Kd: 21.2 nM
HLA-A*30:01; source organism: Dengue virus 2 Peru/IQT2913/1996
  Kd: 17.6 nM

## HSRASPRIG
HLA-A*30:01; [9]
  Kd: 0.931 nM

## HTLESPVEF
HLA-B*58:01; source organism: SARS-CoV1
  Kd: 98.1 nM
HLA-A*11:01; source organism: SARS-CoV1
  Kd: ≥ 53900 nM
HLA-A*31:01; source organism: SARS-CoV1
  Kd: 1400 nM
HLA-B*15:01; source organism: SARS-CoV1
  Kd: 1440 nM

## HTSARLHSL
HLA-A*30:01; [9]
  Kd: 4.14 nM

## IAGVAGLIT
HLA-A*02:01 [1]; [8]
  IC50: ≥ 205000 nM

## IGESSSNPTI
HLA-A*30:01; [10]
  Kd: 7340 nM

## IHDFIDNPL
HLA-A*02:01 [1]; source organism: Sudan ebolavirus
  IC50: ≥ 103000 nM

## IILWFFNAM
HLA-B*08:01; [9]
  Kd: 5230 nM

## IKHVGLITC
HLA-A*02:01 [1]; [9]
  IC50: ≥ 622000 nM

## ILGLPTQTV
HLA-B*15:01; source organism: SARS-CoV1
  Kd: 1600 nM
HLA-A*02:01 [3]; source organism: SARS-CoV1
  Kd: 402 nM

## ILIDTSAWV
HLA-A*69:01; source organism: Mycobacterium tuberculosis
  Kd: 429 nM

## IMAVLFVVTL
HLA-B*08:01; [10]
  Kd: 5420 nM

## IMRMRFKKG
HLA-B*08:01; [9]
  Kd: 62.4 nM

## ISGVFPVSI
HLA-A*32:01; [7]
  Kd: 1120 nM

## ISYGGGWRFQ
HLA-A*32:01; source organism: Dengue virus 1 Brazil/97-11/1997
  Kd: ≥ 56400 nM

## ITYWSRFTI
HLA-A*32:01; [9]
  Kd: 2.48 nM

## KALKINWYKK
HLA-A*32:01; source organism: Dengue virus 3 Singapore/8120/1995
  Kd: 8040 nM

## KEENLVRSM
HLA-B*40:01 [4]
  Kd: 1130 nM

## KGGTGGWLW
HLA-B*58:01; source organism: Mycobacterium tuberculosis str. Haarlem
  Kd: 43.3 nM

## KGRISYYEM
HLA-A*30:01; [9]
  Kd: 14.4 nM

## KIFEYGFTF
HLA-B*58:01; [11]
  Kd: 255 nM
HLA-A*03:01 [5]
  Kd: 6020 nM
HLA-B*40:01 [6]
  Kd: 4350 nM
HLA-A*11:01; [11]
  Kd: 377 nM
HLA-A*31:01; [11]
  Kd: 196 nM
HLA-B*15:01; [11]
  Kd: 229 nM
HLA-A*02:01 [3]; [11]
  Kd: 106 nM
HLA-A*69:01; [11]
  Kd: 4280 nM
